B1: Bacillus cereus VD045 GajA (Gabija protein A), co-expressed with GajB, tag removed (enzyme)
chain: KFSNITIKNFRNFEKVNINLDNKNVIFGMNDIGKTNFLYALRFLLDKEIRKFGFNKSDYHKHDTSKKIEIILTLDLSNYEKDEDTKKLISVVKGARTSANADVFYIALESKYDDKELYGNIILKWGSELDNLIDIPGRGNINALDNVFKVIYINPLVDLDKLFAQNKKYIFEESQGNESDEGILNNIKSLTDQVNQQIGEMTIIKGFQQEITSEYRSLKKEEVSIELKSEMAIKGFFSDIIPYIKKDGDSNYYPTSGDGRRKMLSYSIYNYLAKKKYEDKIVIYLIEEPEISLHRSMQIALSKQLFEQSTYKYFFLSTHSPELLYEMDNTRLIRVHSTEKVVCSSHMYNVEEAYGSVKKKLNKALSSALFAERVLLIEGPSEKILFEKVLDEVEPEYELNGGFLLEVGGTYFNHYVCTLNDLGITHIIKTDNDLKSKKGKKGVYELLGLNRCLNLLGRENLDEITIDIPEDIKGKKKKERLNERKKEIFKQYKNEVGEFLGERIYLSEIDLENDLYSAIGESMKRIFENEDPVHYLQKSKLFNMVELVNNLSTKDCFDVFEHEKFACLKELVGSDRG
notes: GajA (Gabija protein A), Class 2 OLD nuclease, Bacillus cereus VD045, IMG ID 2519684552; codon-optimized synthetic gene; GajA chain of the GajAB crystal structure; The 5xGS linker probably stays on GajA after SENP2 cleavage (surmise); also called BcGajA; source: E. coli BL21(DE3) or BL21(DE3)-RIL, co-expressed with GajB, purified (Ni-NTA, SUMO2 cleavage by hSENP2, SEC); not shown: …
B2: Bacillus cereus VD045 GajB (Gabija protein B), untagged, co-expressed with GajA (enzyme)
chain: SREQIIKDGGNILVTAGAGSGKTTILVSKIEADLKENKTHYSIAAVTFTNKAAKEIEGRLGYSSRGNFIGTNDGFVESEIIRPFIKDAFGNDYPDNFTAEYFDNQFASYDKGLQVLKYQNILGTYSNPKKNFKFQLALDILKKSLVARQYIFSKYFKIFIDEYQDSDKDMHNLFMYLKDQLKIKLFIVGDPKQSIYIWRGAEPENFNGLIENSTDFNKYHLTSNFRCCQDIQNYSNLFNEETRSLIKEKNEVQNVISIADDMPISDILLKLTEEKQVLNIEAELVILVRRRNQAIEIMKELNEEGFNFIFIPQTPLDRATPNATLLKEVIKYVKNDRYSIYDLAAEIVGNLSSREIKEIQKIINELLVPNINQVLINQVLINLFAKLEITLDTREITAFTEVMMTNEFDIAFDTNEYLHKIFTVHSAKGLEFNQVIITASDYNVHYNRDTNEHYVATTRAKDKLIVIMDNKKYSDYIETLMKELKIKNIIKSI
notes: GajB (Gabija protein B), Superfamily 1A helicase, Bacillus cereus VD045, IMG ID 2519684553; codon-optimized synthetic gene; GajB chain of the GajAB crystal structure and of the GajAB-Gad1 cryo-EM structure; also called BcGajB
B3: Bacillus cereus VD045 GajA alone, C-terminal 6xHis (enzyme)
chain: B1 chain
notes: GajA, Bacillus cereus VD045, IMG ID 2519684552; also called BcGajA; source: E. coli BL21(DE3) or BL21(DE3)-RIL, purified (Ni-NTA, SEC); for the Ni-NTA co-purification co-expressed with Shewanella phage 1/4 Gad1; not shown: 6xHis, C-terminal, kept

Legend:
[1] = biological target: the molecule itself; assay: crystal structure; GajAB co-expressed in E. coli and purified as a complex; hanging drop, 18°C, 100 mM HEPES-NaOH pH 7.5, 2.4% PEG-400, 2.2 M ammonium sulfate; 3.0 Å
[2] = biological target: B1; assay: as above; settings: both partners purified
[3] = biological target: the molecule itself; assay: SEC; 16/600 S200 (Superdex 200); purified recombinant BcGajA alone, BcGajB alone and the co-expressed BcGajAB complex

B1
stoichiometry N [1]: 4

B2
stoichiometry N [2]: 1 GajB per GajA (4:4)

B3
stoichiometry N [3]: 4

Reference: doi:10.1101/2023.05.01.538945, “Structural basis of Gabija anti-phage defense and viral immune evasion” (bioRxiv, 2023)
